In publication PMC10748421:

Target: full-length recombinant human BAX (human) (UniProt Q07812)
Assay: not stated; data not shown; BAX stocks at high concentrations

Q: With “full-length recombinant human BAX (from UniProt Q07812 1-192) (natural protein)” as the substance, how does the stoichiometry N read?
A: 2
